Assay results as given in patent US10087231B2, “Substitution mutant receptors and their use in an ecdysone receptor-based inducible gene expression system” (Intrexon Corporation, priority 2001, dated 2018).
Changes are numbered by the printed parent chain. Names may count otherwise. “Also recorded” adds a separate entry of the source.

B1: M431L: HsRXRβ ligand binding domain substitution mutant (SEQ ID NO: 2) (protein, listed as Homo sapiens)
chain: MSWAARPPFLPQRHAAGQCGPVGVRKEMHCGVASRWRRRRPWLDPAAAAAAAVAGGEQQTPEPEPGEAGRDGMGDSGRDSRSPDSSSPNPLPQGVPPPSPPGPPLPPSTAPSLGGSGAPPPPPMPPPPLGSPFPVISSSMGSPGLPPPAPPGFSGPVSSPQINSTVSLPGGGSGPPEDVKPPVLGVRGLHCPPPPGGPGAGKRLCAICGDRSSGKHYGVYSCEGCKGFFKRTIRKDLTYSCRDNKDCTVDKRQRNRCQYCRYQKCLATGMKREAVQEERQRGKDKDGDGEGAGGAPEEMPVDRILEAELAVEQKSDQGVEGPGGTGGSGSSPNDPVTNICQAADKQLFTLVEWAKRIPHFSSLPLDDQVILLRAGWNELLIASFSHRSIDVRDGILLATGLHVHRNSAHSAGVGAIFDRVLTELVSKMRDLRMDKTELGCLRAIILFNPDAKGLSNPSEVEVLREKVYASLETYCKQKYPEQQGRFAKLLLRLPALRSIGLKCLEHLFFFKLIGDTPIDTFLMEMLEAPHQLA
B2: E401D: MmRXRα ligand binding domain substitution mutant, glutamic acid to aspartic acid at 401 of SEQ ID NO: 1, fused to VP16 (protein)
chain: MGPKKKRKVAPPTDVSLGDELHLDGEDVAMAHADALDDFDLDMLGDGDSPGPGFTPHDSAPYGALDMADFEFEQMFTDALGIDEYGGEFPANEDMPVEKILEAELAVEPKTETYVEANMGLNPSSPNDPVTNICQAADKQLFTLVEWAKRIPHFSELPLDDQVILLRAGWNELLIASFSHRSIAVKDGILLATGLHVHRNSAHSAGVGAIFDRVLTELVSKMRDMQMDKTELGCLRAIVLFNPDSKGLSNPAEVEALREKVYASLDAYCKHKYPEQPGRFAKLLLRLPALRSIGLKCLEHLFFFKLIGDTPIDTFLMEMLEAPHQAT
B3: E401D/G429S: double substitution mutant MmRXRα-EF with E401D and G429S; three independent clones analyzed (protein)
chain: B2 chain with G294S
B4: G429S: MmRXRα ligand binding domain substitution mutant, glycine to serine at 429 of SEQ ID NO: 1, fused to VP16 (protein)
chain: B2 chain with D266E, G294S

Legend:
[1] = tested on: GAL4/CfEcR-DEF and pFRLuc in NIH3T3 cells; assay type: cell-based, mouse; details: 0.04-25 μM GS™-E (FIG. 4)
Method: (§1) The resulting PCR nucleic acid products encoding the mutant RXR ligand binding domains were then each fused to a VP16 transactivation domain as described in Examples 1.3 and 1.6 above. The VP16/mutant RXR receptor constructs were tested for activity by transfecting them into NIH3T3 cells along with GAL4/CfEcR-DEF and pFRLuc in the presence of non-steroid ligand.
(§2) DNAs corresponding to the various switch constructs outlined in Example 1.1-1.6 were transfected into mouse NIH3T3 cells (ATCC) as follows. Standard methods for culture and maintenance of the cells were followed. […] Superfect™ (Qiagen Inc.) was used as the transfection reagent. For 12-well plates, 4 μl of Superfect™ was mixed with 100 μl of growth medium. One μg of reporter construct and 0.25 μg of each receptor construct of the receptor pair to be analyzed were added to the transfection mix. […] The cells were harvested and reporter activity was assayed.
Cells were harvested 40 hours after adding ligand. […] Twenty μl of lysate were assayed. […]
The cells were harvested and reporter activity was assayed as described above.
As discussed above, a CfEcR-based gene regulation system is ligand dependent when RXRs are used as the heterodimeric partner and ligand independent when USPs are used as the heterodimeric partner. However, reporter gene expression is induced at very high levels when CfUSP is used as the heterodimeric partner. To improve RXR as heterodimeric partner, Applicants have aligned the polypeptide sequences of several USP and RXR ligand binding domains (domains EF) and identified amino acid residues that are different between these two nuclear receptor family members. In particular, Applicants identified residues that are conserved in all USPs but are different in RXRs and mutated these residues in HsRXRβ. […] The cells were harvested and reporter activity was assayed as described above.

[2] = tested on: GAL4/CfEcR-DEF and pFRLuc in NIH3T3 cells; experiment: Reporter gene transactivation of VP16/mutant MmRXRα-EF with GAL4/CfEcR-DEF and pFRLuc, GS™-E ligand; assay type: cell-based, mouse; details: for induction levels / sensitivity to non-steroid ligand: NIH3T3 cells, 0.2, 1 and 10 μM GS™-E; for background levels in the absence of ligand: NIH3T3 cells, VP16/MmRXRα-EF mutant + GAL4/CfEcR-DEF + pFRLuc, no ligand (DMSO)
Method: as §1, §2
Cells were harvested 40 hours after adding ligand. […] Twenty μl of lysate were assayed.
DNAs corresponding to the various switch constructs outlined in Example 1, specifically switches 1.1-1.4, were transfected into mouse NIH3T3 cells (ATCC) as follows. […] Two μl of Superfect™ was mixed with 100 μl of growth medium and 50 ng of GAL4/CfEcR-DEF cassette, 50 ng of: VP16/LmUSP-EF, VP16/wild-typeMmRXRα-EF, VP16/MmRXRα-LmUSPchimera-EF, or VP16/mutantMmRXRα-EF, and 200 ng of pFRLuc were added to the transfection mix. […] The cells were harvested and reporter activity was assayed as described above.

Molecule | transactivation activity [1] | induction levels [2] | sensitivity to non-steroid ligand [2] | background levels in the absence of ligand [2] | performance compared with chimeric vertebrate RXR/invertebrate RXR ([2]; NIH3T3 cells, 0.2, 1 and 10 μM GS™-E (FIG. 2))
B1 | essentially eliminated transactivation activity | – | – | – | –
B2 | – | higher induction levels | increased sensitivity to a non-steroid ligand | higher background | –
B3 | – | increased induction levels | increased induction levels and ligand sensitivity | low background levels | work as well as the chimeric RXR
B4 | – | – | increased sensitivity to a non-steroid ligand; also recorded: increased sensitivity to ligand | less background | –
